US20070298510A1 (CANON, published 2007)

Biological target: T1, hen egg-white lysozyme (hen, UniProt P00698 19-147)
T1 construct: In solution in phosphate-buffered saline, captured in a sandwich between the first and second peptide molecules; also called HEL; target substance 173
Assay: sandwich on TMR element: immobilized scFv, HEL, Fab on magnetic beads; magnetic read-out

T1 sequence (P00698 19-147): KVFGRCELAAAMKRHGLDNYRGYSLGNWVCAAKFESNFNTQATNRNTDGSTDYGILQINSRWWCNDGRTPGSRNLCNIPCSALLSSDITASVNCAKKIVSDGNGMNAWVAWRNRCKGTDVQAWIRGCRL

- binding result: binds
B1: HyHEL10 scFv (single chain Fv of an anti-HEL antibody) (scFv)
scFv: DIVLTQSPATLSVTPGNSVSLSCRASQSIGNNLHWYQQKSHESPRLLIKYASQSISGIPSRFSGSGSGTDFTLSINSVETEDFGMYFCQQSNSWPYTFGGGTKLIITAGGGGSGGGGSGGGGSDIQLQESGPSLVKPSQTLSLTCSVTGDSITSDYWSWIRKFPGNRLEYMGYVSYSGSTYYNPSLKSRISITRDTSKNQYYLDLNSVTTEDTATYYCANWDGDYWGQGTLVTVSA
notes: Purified as a His-tag-fused polypeptide; In the assay it was immobilized on the silicon film or substrate via aminosilane and glutaraldehyde; also called scFv of the anti-HEL antibody; scFv of the HEL antibody
